According to patent US20170114104A1 (KOREA ADVANCED INSTITUTE OF SCIENCE AND TECHNOLOGY, published 2017):
Residue numbers refer to the chain shown, from its start. Names may count otherwise.

B1: Monomeric rhizavidin with one mutation (1M: S69R) (designed binder)
chain: FDASNFKDFSSIASASSSWQNQSGSTMIIQVDSFGNVSGQYVNRAQGTGCQNSPYPLTGRVNGTFIAFRVGWNNSTENCNSATGWTGYAQVNGNNTEIVTSWNLAYEGGSGPAIEQGQDTFQYVPTTE
B2: Monodin (MA) (designed binder)
chain: B1 chain with S23H, Q46E, A67D, R69S, G71K, A82N, G84Q, S101R, A105K, E115W
notes: Expressed from pET21a and purified on Ni-NTA (His6 tag); also called mRA E115W/S23H/Q46E
B3: Rhizavidin (RA) (other)
chain: B1 chain with R69S
notes: Homodimer; Purified on Ni-NTA; also called dimeric rhizavidin; wild type rhizavidin

Columns and labels:
[1] = molecular target: T1, Biotinylated green fluorescent protein (biotin-GFP) (site-specifically biotinylated in the N-terminal biotinylation peptide (AP, SEQ ID NO: 4) by biotin ligase BirA); assay: 15 % native-PAGE gel mobility shift, fluorescence of biotin-GFP [a]
T1 construct: Negatively charged GFP with the N-terminal AP biotinylation peptide

[2] = molecular target: T1, Biotinylated green fluorescent protein …; assay: native-PAGE off-rate under excess biotin, 45 °C
[3] = molecular target: T1, Biotinylated green fluorescent protein …; assay: native-PAGE off-rate under excess biotin, 37 °C
[4] = molecular target: T2, Biotinylated protein G (biotin-protein G) (site-specifically biotinylated in the N-terminal biotinylation peptide (AP, SEQ ID NO: 4) by BirA; labelled with atto532); assay: native-PAGE off-rate under excess biotin, 37 °C
T2 construct: About 12 kDa protein G with the N-terminal AP peptide; also called biotin-protein G-atto532
T2 chain: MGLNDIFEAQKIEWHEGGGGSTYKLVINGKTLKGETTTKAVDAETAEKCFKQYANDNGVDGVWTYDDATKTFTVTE

[5] = molecular target: T1, Biotinylated green fluorescent protein …; assay: native-PAGE off-rate under excess biotin, 45 °C; reference streptavidin
[6] = molecular target: T1, Biotinylated green fluorescent protein …; assay: native-PAGE off-rate under excess biotin, 37 °C; remark: listed apart in the source

Binder	binding result [1]	koff [2]	koff [3]	koff [4]	fold faster off-rate than tetrameric streptavidin [5]	dissociation half-life [6]
B1	binds	–	–	–	–	–
B2	–	6.4e-05 s⁻¹	2.3e-05 s⁻¹	4.6e-05 s⁻¹	3.4 fold	8.3 h
B3	–	6e-05 s⁻¹	5e-05 s⁻¹	3.2e-05 s⁻¹	–	3.8 h
